Measurements as given in paper PMC9772344.
Changes are numbered by the printed parent chain. Names may count otherwise.

B1: glutamate transporter GLT-1 (excitatory amino acid transporter 2, EAAT2), WT plasmid, P43006 G82R; L85P (protein)
chain: MASTEGANNMPKQVEVRMHDSHLSSDEPKHRNLGMRMCDKLGKNLLLSLTVFGVILGAVCGGLLRLASPIHPDVVMLIAFPRDIPMRMLKMLILPLIISSLITGLSGLDAKASGRLGTRAMVYYMSTTIIAAVLGVILVLAIHPGNPKLKKQLGPGKKNDEVSSLDAFLDLIRNLFPENLVQACFQQIQTVTKKVLVAPPSEEANTTKAVISMLNETMNEAPEETKIVIKKGLEFKDGMNVLGLIGFFIAFGIAMGKMGEQAKLMVEFFNILNEIVMKLVIMIMWYSPLGIACLICGKIIAIKDLEVVARQLGMYMITVIVGLIIHGGIFLPLIYFVVTRKNPFSFFAGIFQAWITALGTASSAGTLPVTFRCLEDNLGIDKRVTRFVLPVGATINMDGTALYEAVAAIFIAQMNGVILDGGQIVTVSLTATLASIGAASIPSAGLVTMLLILTAVGLPTEDISLLVAVDWLLDRMRTSVNVVGDSFGAGIVYHLSKSELDTIDSQHRMQEDIEMTKTQSIYDDKNHRESNSNQCVYAAHNSVVIDECKVTLAANGKSADCSVEEEPWKREK
B2: glutamate transporter GLT-1 (excitatory amino acid transporter 2, EAAT2), WT plasmid, P43006 L85P (protein)
chain: B1 chain with R82G
B3: glutamate transporter GLT-1 (excitatory amino acid transporter 2, EAAT2), WT plasmid, P43006 G82R (protein)
chain: B1 chain with P85L

Each binder was assayed against Orai1, Q96D31 (assay: Co-IP (GLT-1 capture antibody, immunoblot for Orai1, band quantification)). Conditions: chain shown with the change; transfected HeLa cells; n = 3 per group; parent: est. 1.0; read off a plot.
Chain of Orai1, Q96D31 (Q96D31 whole entry): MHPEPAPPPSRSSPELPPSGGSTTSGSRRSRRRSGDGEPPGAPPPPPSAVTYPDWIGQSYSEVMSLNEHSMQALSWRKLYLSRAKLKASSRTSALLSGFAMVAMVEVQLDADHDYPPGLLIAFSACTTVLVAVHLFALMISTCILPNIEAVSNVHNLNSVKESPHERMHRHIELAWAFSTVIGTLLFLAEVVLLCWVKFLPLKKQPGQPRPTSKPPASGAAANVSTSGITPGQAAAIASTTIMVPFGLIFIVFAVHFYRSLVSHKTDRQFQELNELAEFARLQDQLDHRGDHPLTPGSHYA

response (relative band intensity)	Binder
0.27	B1
0.17	B2
0.22	B3

These binders were tested against stromal-interacting molecule 1 (STIM1), Q13586 (assay: Co-IP (GLT-1 capture antibody, immunoblot for STIM1, band quantification)). Conditions: chain shown with the change; transfected HeLa cells; n = 3 per group; parent: est. 1.0; read off a plot.
Chain of stromal-interacting molecule 1 (STIM1), Q13586 (Q13586 23-685): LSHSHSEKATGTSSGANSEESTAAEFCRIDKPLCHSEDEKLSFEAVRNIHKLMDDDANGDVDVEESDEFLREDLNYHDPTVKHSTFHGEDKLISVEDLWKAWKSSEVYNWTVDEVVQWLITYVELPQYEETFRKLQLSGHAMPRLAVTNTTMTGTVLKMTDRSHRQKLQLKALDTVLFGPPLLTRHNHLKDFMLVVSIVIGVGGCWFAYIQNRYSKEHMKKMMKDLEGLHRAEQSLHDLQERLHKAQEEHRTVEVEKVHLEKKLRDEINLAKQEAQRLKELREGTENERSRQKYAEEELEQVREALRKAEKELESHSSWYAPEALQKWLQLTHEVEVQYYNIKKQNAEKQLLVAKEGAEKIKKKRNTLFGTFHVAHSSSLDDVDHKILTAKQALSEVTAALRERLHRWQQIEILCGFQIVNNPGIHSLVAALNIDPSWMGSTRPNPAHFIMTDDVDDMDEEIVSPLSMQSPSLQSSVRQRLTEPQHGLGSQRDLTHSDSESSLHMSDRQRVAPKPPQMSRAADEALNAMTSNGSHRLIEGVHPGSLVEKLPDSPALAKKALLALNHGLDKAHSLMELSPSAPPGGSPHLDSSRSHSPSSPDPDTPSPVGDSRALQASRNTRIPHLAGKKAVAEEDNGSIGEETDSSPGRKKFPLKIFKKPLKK

response (relative band intensity)	Binder
0.08	B1
0.12	B2
0.15	B3

Each binder was assayed against stromal-interacting molecule 1 (STIM1), Q13586 (assay: Co-IP (STIM1 capture antibody, immunoblot for GLT-1, band quantification)). Conditions: chain shown with the change; transfected HeLa cells; n = 3 per group; parent: est. 1.0; read off a plot.

response (relative band intensity)	Binder
0.12	B1
0.13	B2
0.15	B3
